Measured values published in patent US8895526B2, “Identification of RNAI targets and use of RNAI for rational therapy of chemotherapy-resistant leukemia and other cancers” (Cold Spring Harbor Laboratory, priority 2009, dated 2014).

B1: Dio2.2087: shRNA, SEQ ID NO: 112 (nucleic acid)
chain: TGCTGTTGACAGTGAGCGCCAGGAATTTGGTTAAATGGAATAGTGAAGCCACAGATGTATTCCATTTAACCAAATTCCTGTTGCCTACTGCCTCGGA
B2: Gdi1.2355: shRNA, SEQ ID NO: 130 (nucleic acid)
chain: TGCTGTTGACAGTGAGCGACTCTAGTATATTTCACAGAAATAGTGAAGCCACAGATGTATTTCTGTGAAATATACTAGAGCTGCCTACTGCCTCGGA
B3: Htatip2.575: shRNA, SEQ ID NO: 133 (nucleic acid)
chain: TGCTGTTGACAGTGAGCGACAGCAGTTTCTTATACCTACATAGTGAAGCCACAGATGTATGTAGGTATAAGAAACTGCTGGTGCCTACTGCCTCGGA
B4: Rgs6.896: shRNA, SEQ ID NO: 173 (nucleic acid)
chain: TGCTGTTGACAGTGAGCGCCAAGTGAAGATTGACCGGAAATAGTGAAGCCACAGATGTATTTCCGGTCAATCTTCACTTGTTGCCTACTGCCTCGGA
B5: Acsl1.3559: shRNA, SEQ ID NO: 88 (nucleic acid)
chain: TGCTGTTGACAGTGAGCGCCAGCATTTCACTTTACTGCAATAGTGAAGCCACAGATGTATTGCAGTAAAGTGAAATGCTGTTGCCTACTGCCTCGGA
B6: Nmur1.7: shRNA, SEQ ID NO: 152 (nucleic acid)
chain: TGCTGTTGACAGTGAGCGCCTGCAATATCAGTGAGTTCAATAGTGAAGCCACAGATGTATTGAACTCACTGATATTGCAGATGCCTACTGCCTCGGA
B7: Trpm4.2813: shRNA, SEQ ID NO: 188 (nucleic acid)
chain: TGCTGTTGACAGTGAGCGACAAGATTGTCATAGTGAGCAATAGTGAAGCCACAGATGTATTGCTCACTATGACAATCTTGGTGCCTACTGCCTCGGA
B8: Ctbs.796: shRNA, SEQ ID NO: 110 (nucleic acid)
chain: TGCTGTTGACAGTGAGCGCCCCACAGAGCATCTCACTAAATAGTGAAGCCACAGATGTATTTAGTGAGATGCTCTGTGGGTTGCCTACTGCCTCGGA
B9: Cdc42ep1.317: shRNA, SEQ ID NO: 103 (nucleic acid)
chain: TGCTGTTGACAGTGAGCGCCTAGCAGTTGTAAGCAATCAATAGTGAAGCCACAGATGTATTGATTGCTTACAACTGCTAGTTGCCTACTGCCTCGGA
B10: Slc6a13.1196: shRNA, SEQ ID NO: 182 (nucleic acid)
chain: TGCTGTTGACAGTGAGCGACTGGGACTAGATAGCCAGTTTTAGTGAAGCCACAGATGTAAAACTGGCTATCTAGTCCCAGGTGCCTACTGCCTCGGA
B11: Casp1.248: shRNA, SEQ ID NO: 100 (nucleic acid)
chain: TGCTGTTGACAGTGAGCGCCAGTGAGTATAGGGACAATAATAGTGAAGCCACAGATGTATTATTGTCCCTATACTCACTGATGCCTACTGCCTCGGA
B12: Wnt10b.1717: shRNA, SEQ ID NO: 190 (nucleic acid)
chain: TGCTGTTGACAGTGAGCGCCTCGAATAGACTAAGATGAAATAGTGAAGCCACAGATGTATTTCATCTTAGTCTATTCGAGTTGCCTACTGCCTCGGA
B13: Pdgfrb.1028: shRNA, SEQ ID NO: 163 (nucleic acid)
chain: TGCTGTTGACAGTGAGCGAAACGACCATGGCGATGAGAAATAGTGAAGCCACAGATGTATTTCTCATCGCCATGGTCGTTCTGCCTACTGCCTCGGA
B14: Gdi1.1120: shRNA, SEQ ID NO: 129 (nucleic acid)
chain: TGCTGTTGACAGTGAGCGCCAACAGGAAGTCAGACATCTATAGTGAAGCCACAGATGTATAGATGTCTGACTTCCTGTTGATGCCTACTGCCTCGGA
B15: Rbks.337: shRNA, SEQ ID NO: 172 (nucleic acid)
chain: TGCTGTTGACAGTGAGCGAAGCCTCCATAATTGTCAATAATAGTGAAGCCACAGATGTATTATTGACAATTATGGAGGCTGTGCCTACTGCCTCGGA
B16: Pde1b.2027: shRNA, SEQ ID NO: 162 (nucleic acid)
chain: TGCTGTTGACAGTGAGCGCTGCCTCCAAGTTTCTAAGCAATAGTGAAGCCACAGATGTATTGCTTAGAAACTTGGAGGCAATGCCTACTGCCTCGGA
B17: EG408196.85: shRNA, SEQ ID NO: 116 (nucleic acid)
chain: TGCTGTTGACAGTGAGCGCAGCGAGAACCAGTGAGAAATATAGTGAAGCCACAGATGTATATTTCTCACTGGTTCTCGCTTTGCCTACTGCCTCGGA
B18: Myo7a.618: shRNA, SEQ ID NO: 149 (nucleic acid)
chain: TGCTGTTGACAGTGAGCGCCCGCCAGTACACCAACAAGAATAGTGAAGCCACAGATGTATTCTTGTTGGTGTACTGGCGGATGCCTACTGCCTCGGA
B19: Vnn3.345: shRNA, SEQ ID NO: 189 (nucleic acid)
chain: TGCTGTTGACAGTGAGCGAACGCCAGAAGATGGAATCTATTAGTGAAGCCACAGATGTAATAGATTCCATCTTCTGGCGTCTGCCTACTGCCTCGGA
B20: Lima1.3235: shRNA, SEQ ID NO: 138 (nucleic acid)
chain: TGCTGTTGACAGTGAGCGAACGGACATTGTACCCAGATAATAGTGAAGCCACAGATGTATTATCTGGGTACAATGTCCGTCTGCCTACTGCCTCGGA
B21: EG277089.605: shRNA, SEQ ID NO: 115 (nucleic acid)
chain: TGCTGTTGACAGTGAGCGCCTCAATCTCATTGGTGGCTTATAGTGAAGCCACAGATGTATAAGCCACCAATGAGATTGAGATGCCTACTGCCTCGGA
B22: Pgam1.1811: shRNA, SEQ ID NO: 164 (nucleic acid)
chain: TGCTGTTGACAGTGAGCGCAAGGAGTGATGTGCAATACTTTAGTGAAGCCACAGATGTAAAGTATTGCACATCACTCCTTTTGCCTACTGCCTCGGA
B23: Ncf1.2370: shRNA, SEQ ID NO: 150 (nucleic acid)
chain: TGCTGTTGACAGTGAGCGCCAGAAGATCAATGCACATAAATAGTGAAGCCACAGATGTATTTATGTGCATTGATCTTCTGTTGCCTACTGCCTCGGA
B24: Plod3.3138: shRNA, SEQ ID NO: 169 (nucleic acid)
chain: TGCTGTTGACAGTGAGCGACTCAGCCTCACTTTCAATAAATAGTGAAGCCACAGATGTATTTATTGAAAGTGAGGCTGAGGTGCCTACTGCCTCGGA

What follows are molecules tested on tet-on competent MLL/AF9+Nras AML (assay: Pooled negative selection RNAi screening (deep sequencing)). Conditions: deep sequencing reads, On Dox compared to T0.
Format: cell-based, mouse
Excerpt: (§1) In addition to the analysis of single shRNAs for inhibitory effects in vitro and in vivo, the combination of tet-on competent cancer models and tet-regulatable shRNA expression vectors allowing for monitoring shRNA expression through fluorescent and other reporter genes (e.g. TRMPV and derivates) facilitates pooled shRNA negative selection screening (FIG. 37). In such approaches a pool of over 1,000 shRNAs are retrovirally transduced into tet-on competent cancer models (here MLL/AF9+Nras AML) and selected for shRNA containing cells by either drug selection (e.g. G418) or fluorescence-activated cell sorting (FACS). Selected cell populations harboring a library of shRNAs then can be cultured in the absence or presence of doxycyline (off dox and on dox, respectively) or injected into syngeneic recipient mice that are either treated with doxycyline or left untreated.
(§2) The representation of each shRNA within the pool can be effectively assessed by deep sequencing of shRNA cassettes in a given cell population. For this, genomic DNA is extracted from leukemia cells containing the shRNA pool, and the shRNA guide or passenger strand (21-22 target gene specific nucleotides of the shRNA) by PCR using primers specific for common sequences flanking the gene specific part of the shRNA (e.g. miR30 19 nt loop and miR30 common 3′ sequence). The primers also contain 5′-adapters required for deep sequencing (e.g. for Illumina/Solexa sequencing primers are p5+mir3: 5′-[…]-3′ (SEQ ID NO: 215) and p7+Loop: 5′-[…]-3′ (SEQ ID NO: 216)). Deep sequencing is subsequently performed using a primer binding the flanking nucleotide sequence next to the target gene specific part of the shRNA (for Illumina/Solexa platforms the primer is mir30EcoR1Seq: 5′-TAGCCCCTTGAATTCCGA GGCAGTAGGCA-3′ (SEQ ID NO: 217)).
(§3) The use of shRNA vectors that allow for monitoring of shRNA expression through fluorescent and other reporter genes (e.g. TRMPV) in combination with tet-on competent mouse models facilitates the isolation of pure shRNA expressing cell populations (e.g. by FACS, for TRMPV by sorting of Venus/dsRed double positive cells (FIG. 38). This selection of shRNA expressing cells prior to DNA isolation strongly reduces the background caused by cell populations with insufficient shRNA induction, which are predicted to contain genomic representation of the whole shRNA library without shRNA specific shifts in representation. The final readout is based on the comparison of shRNA representation (i.e. deep sequencing read numbers) before the assay (t0) or from cell populations left without doxycycline treatment (off dox) to those where shRNA were induced and cells subsequently sorted for shRNA expressing cells (on dox). shRNA with inhibitory effects are predicted to loose representation (show less reads) on dox compared to t0 and off dox.
(§4) This pooled is RNAi screening strategy can be applied to rapidly survey inhibitory effects of large pools of shRNAs (˜1000 at a time) in different tet-on competent cancer models and normal control cells (FIG. 39). For example, a pool of 1166 shRNAs targeting 836 predominantly druggable genes associated with MLL fusion proteins in human leukemia and mouse models of MLL/AF9-induced AML (MLL cure library) was analyzed in pooled negative selection screening in tet-on competent MLL/AF9+Nras AML and immortalized murine embryonic fibroblasts (Mef) in parallel. To establish and validate this screening approach, the pool also contained 64 control shRNAs each of which have been previously analyzed for inhibitory effects in both AML cells and Mefs using the same experimental system (FIG. 40).
(§5) After pooling of 1166 experimental and 64 control shRNAs the presence of shRNAs was verified by deep sequencing of shRNAs within the plasmid vector pool (FIG. 41). […]

Molecule	Fold depletion in AML [Fold]
B1	20.52
B2	9.92
B3	15.74
B4	14.33
B5	10.18
B6	19.45
B7	20.52
B8	19.44
B9	14.91
B10	9.77
B11	16.16
B12	15.69
B13	16.16
B14	24.81
B15	17.02
B16	15.12
B17	20.79
B18	14.79
B19	10.19
B20	16.44
B21	25.37
B22	20.18
B23	10.06
B24	21.28

Each molecule was assayed on immortalized murine embryonic fibroblasts (Mef) in the same assay as above. Conditions: deep sequencing reads, on dox compared to initial representation.
Format: cell-based
Excerpt: as §1, §2, §3, §4, §5

Molecule	Fold depletion in Mef [Fold]
B1	2.52
B2	2.86
B3	1.08
B4	1.99
B5	1.45
B6	2.58
B7	2.33
B8	0.19
B9	1.47
B10	1.52
B11	3.84
B12	1.35
B13	2.15
B14	1.98
B15	1.07
B16	1.31
B17	0.25
B18	4.42
B19	2.59
B20	0.56
B21	2.02
B22	0.17
B23	2.33
B24	0.71
